In publication PMC6881245:

Tests used:
Complement C1q [1] = target: Complement C1q (UniProt P02745); assay: flow cytometry on cholesterol crystals; C1q (50 μg/ml in PBS, 1 h RT) bound to cholesterol crystals (1.6 mg/ml), washed; vWF 10 μg/ml in PBS added for 1 h at RT, washed; vWF detected with polyclonal rabbit anti-vWF and anti-rabbit IgG-AF647; BD Accuri 6; n = 5
Complement C1q [2] = target: Complement C1q (UniProt P02745)
Complement C1q [3] = target: Complement C1q (UniProt P02745); remark: listed apart in the source

Sequence of UniProt P02745 (P02745 23-245, chain 1 of 3): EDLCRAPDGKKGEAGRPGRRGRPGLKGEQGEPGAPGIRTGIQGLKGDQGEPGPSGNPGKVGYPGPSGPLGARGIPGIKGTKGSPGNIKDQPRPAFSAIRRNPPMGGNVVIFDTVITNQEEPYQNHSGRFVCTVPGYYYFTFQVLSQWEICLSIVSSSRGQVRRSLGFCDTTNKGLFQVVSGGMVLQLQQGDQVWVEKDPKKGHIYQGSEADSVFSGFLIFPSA
Sequence of UniProt P02745 (P02746 28-253, chain 2 of 3, further chain): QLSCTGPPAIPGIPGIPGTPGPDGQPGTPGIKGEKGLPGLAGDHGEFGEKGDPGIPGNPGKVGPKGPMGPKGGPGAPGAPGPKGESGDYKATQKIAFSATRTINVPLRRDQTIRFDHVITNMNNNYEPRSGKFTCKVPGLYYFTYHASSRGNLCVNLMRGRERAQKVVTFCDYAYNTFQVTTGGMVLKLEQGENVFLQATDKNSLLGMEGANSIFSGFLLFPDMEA
Sequence of UniProt P02745 (P02747 29-245, chain 3 of 3, further chain): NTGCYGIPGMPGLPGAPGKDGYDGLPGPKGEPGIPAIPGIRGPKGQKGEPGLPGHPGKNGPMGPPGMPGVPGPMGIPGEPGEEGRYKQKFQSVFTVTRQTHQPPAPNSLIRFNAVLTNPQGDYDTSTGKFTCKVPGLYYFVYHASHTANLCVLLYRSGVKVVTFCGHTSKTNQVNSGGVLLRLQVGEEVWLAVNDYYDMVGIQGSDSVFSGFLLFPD

## von Willebrand factor (from UniProt P04275 764-2813) (natural protein)
Complement C1q [1]
  median gMFI of vWF staining on CC-C1q: 115000 gMFI
Complement C1q [2]
  caspase-1 activity of HMDMs after 18 h with CC-C1q-vWF complexes, percent of CD11c+ cells in the FLICA+ gate; CC-C1q without vWF: 11.54% (7.29–28.38%): 9.37%
Complement C1q [3]
  early phagocytosis (30 min) of pHrodo-dyed CC-C1q-vWF complexes by HMDMs, percent of CD11c+ cells in the pHrodo Red Ester+ gate; CC-C1q without vWF: 62, 40% (49.05–68.78%): 54.5%
  late phagocytosis (18 h) of CC-C1q-vWF complexes by HMDMs, percent of CD11c+ cells in the SSC^high gate; CC-C1q without vWF: 24.05% (22.55–34.60%): 13.7%
